Source: article PMC5663884, “Compositional and expression analyses of the glideosome during the Plasmodium life cycle reveal an additional myosin light chain required for maximum motility” (The Journal of Biological Chemistry, 2017)
Residues, ends and D or L forms follow the SMILES beside them. *: point of attachment. Biotin = O=C1N[C@H]2[C@H](CS[C@H]2CCCCC(=O)*)N1

Experiments:
PfELC = biological target: T1, PfELC (Plasmodium falciparum, UniProt Q8IJM4); experiment: biolayer interferometry binding of PfELC to immobilized MyoA neck peptides; design: species or system P. falciparum; details: 25 °C, pH 8.0, PfELC 0.04–5 μM
T1 construct: His tag (N); made in house; host or cells: E. coli BL21 (DE3)
Experimental: Overlapping peptides representing amino acids Gln^770–Ala^787, Ala^786–Ser^803, and Ile^801–Gln^818 of the PfMyoA neck were synthesized by Mimotopes with biotin at the N terminus. […] The C termini of the peptides were capped with an amide to remove unnatural charge, apart from peptide 801–818, which was left as a free acid.
P. falciparum ELC binding to peptides was analyzed by biolayer interferometry using the Octet Red system (ForteBio) at 25 °C in 96-well microplates, as described previously ([63]). All assays were performed in 100 mM Tris-HCl, pH 8.0, containing 0.005% (v/v) Tween 20, according to the manufacturer's instructions. A baseline was established over 4 min, and biotinylated peptides (0.4 μg/ml) were loaded onto streptavidin sensors for 10 min. The sensors were washed for 4 min and then incubated with PfELC at different concentrations (0.04–5 μM) for 800 s. The data were analyzed to calculate a dissociation constant (Kd) using non-linear regression with a one-site binding model and a least-squares fit (GraphPad Prism version 6).

MyoA = experiment: immunoprecipitation with GFP-specific antibodies, Western blot: MyoA-GFP; type: binding, P. falciparum; details: schizont lysate, probed with anti-PfELC antibodies
Experimental: (§1) Parasite lysates were precleared by incubation with blocked agarose beads for 1 h, and then the supernatant was incubated with GFP-Trap agarose beads for 2 h at 4 °C with end-over-end rotation. […] Finally, the beads were resuspended in 5 volumes of 2× SDS-PAGE sample buffer and boiled for 5 min before fractionation of the proteins by SDS-PAGE.

MyoB complex = experiment: immunoprecipitation with GFP-specific antibodies, Western blot: MyoB-GFP; type: binding, P. falciparum; details: schizont lysate, probed with anti-PfELC antibodies
Experimental: as §1

[1] = circular dichroism of recombinant PfELC; type: physicochemical
Experimental: Far-UV CD spectra were recorded on a Jasco J-815 spectropolarimeter fitted with a cell holder thermostatted by a CDF-426S Peltier unit. CD measurements were made at a protein concentration of 10 μM PfELC in 25 mM Tris-HCl, pH 8.0, 50 mM NaCl using fused silica cuvettes with a 1-mm path length (Hellma). All spectra were recorded with 0.1 nm resolution and baseline-corrected by subtraction of the buffer spectrum. Secondary structure content was estimated using methods described by Sreerama and Woody ([62]).

MTIP = details: 3D7 schizont or merozoite lysate, PfELC-specific antibodies
actin = experiment: optical tweezer-based single-molecule acto-MyoA interaction; type: biochemical
Experimental: MyoA was expressed in a wheat germ cell-free protein synthesis system (ENDEXT® Technology, CellFree Sciences) ([64]). Recombinant plasmid DNA using recodonized template DNA was amplified using specific primers and cloned into the vector pEU-E01G-TEV-N1 to express N-terminal GST-tagged protein. For the in vitro transcription reaction, 2 μg of DNA was added to a transcription premix (11.5 μl of nuclease-free water, 1× transcription buffer, 2.5 mM NTP mix, 1 unit/μl RNase inhibitor, 1 unit/μl SP6 RNA polymerase) in a total volume of 20 μl and incubated at 37 °C for 6 h, according to the manufacturer's instructions. The quality of mRNA produced was monitored by gel electrophoresis. The bilayer reaction system (CellFree Sciences) was used to translate mRNA into protein. mRNA (10 μl) was added to 10 μl of wheat germ extract (WEPRO® 1240) supplemented with 40 ng/μl creatine kinase and carefully transferred directly below the SUB-AMIX solution (0.3 mM of each L-amino acid, 100 mM potassium acetate, 2.7 mM magnesium acetate, 16 mM disodium creatine phosphate, 0.4 mM spermidine, 1.2 mM ATP, 0.25 mM GTP, 4 mM dithiothreitol, and 30 mM HEPES-KOH (pH 7.8)) and incubated for 20 h at 15–16 °C. Soluble GST-tagged MyoA was purified using glutathione-Sepharose beads (GE Healthcare); supernatant was incubated with the resin for 2 h at 4 °C, followed by extensive washing with 20 mM Tris-HCl, pH 8.0, 250 mM NaCl, 0.5 mM TCEP. The beads were resuspended in 3 volumes of 20 mM Tris-HCl, pH 8.0, 100 mM NaCl, 10 mM reduced glutathione to elute the GST-tagged protein. This was followed by buffer exchange into PBS on a PD10 column (GE Healthcare).
The optical tweezer assay, developed to measure the force and movement produced by individual myosin molecules interacting with an actin filament, was used in the well-established three-bead format with the experimental conditions as described ([65][–][67]). The experimental apparatus is based around a Zeiss inverted microscope, and experiments were performed in a flow-cell chamber created using a microscope slide and coverslip. […] Interactions between the surface-bound MyoA and the actin filament were recorded by monitoring movement of the beads held in the optical tweezers using two 4-quadrant, photodiode detectors. […] Individual events were then automatically detected by measuring changes in amplitude of the imposed triangular oscillation, and event amplitudes were histogrammed. Data were acquired and saved to computer memory using custom software, with a sampling rate of 10 kHz, and later analyzed using IgorPro software (WaveMetrics Inc., Lake Oswego, OR). Individual acto-MyoA force-producing events were identified as described previously ([65]), and the MyoA power-stroke amplitude and kinetics were analyzed by histogram analysis of the data.

[2] = biological target: T2, Recombinant His-tagged PfELC (E. coli) (P. falciparum, UniProt Q8IJM4 1-134); experiment: BLI; details: both partners purified
T2 construct: also called His-PfELC; His-ELC; source: E. coli BL21 (DE3), purified (nickel-nitrilotriacetic acid-agarose)
T2 sequence: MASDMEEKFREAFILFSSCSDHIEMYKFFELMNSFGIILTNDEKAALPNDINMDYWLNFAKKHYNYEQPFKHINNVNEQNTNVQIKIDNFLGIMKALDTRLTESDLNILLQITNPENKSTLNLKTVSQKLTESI

[3] = far-UV CD, 10 μM PfELC, 25 mM Tris-HCl pH 8.0, 50 mM NaCl

CC[C@H](C)[C@H](NC(=O)[C@H](C)NC(=O)[C@H](C)NC(=O)CNC(=O)[C@H](CO)NC(=O)CNC(=O)[C@H](CO)NC(=O)CCCC[C@@H]1SC[C@@H]2NC(=O)N[C@@H]21)C(=O)N[C@@H](CC(C)C)C(=O)N[C@@H](CCCCN)C(=O)N[C@@H](Cc1c[nH]cn1)C(=O)N[C@@H](CCCCN)C(=O)N[C@@H](Cc1ccc(O)cc1)C(=O)N[C@@H](CCCCN)C(=O)N[C@@H](CCC(N)=O)C(=O)N[C@@H](CCCCN)C(=O)N[C@H](C(=O)N[C@@H](CC(N)=O)C(=O)N[C@@H](CCCCN)C(=O)N[C@@H](CC(N)=O)C(=O)N[C@H](C(=O)N1CCC[C@H]1C(=O)N[C@@H](CO)C(N)=O)[C@@H](C)CC)C(C)C [786–803] (Biotin-SGSGAAILKHKYKQKVNKNIPS-NH2)
binding to PfELC (in words) (PfELC): binds strongly to PfELC

essential light chain [PfELC]
presence in MyoA-GFP immunoprecipitate (MyoA): a 14-kDa protein associated with MyoA in the glideosome complex
presence in MyoB-GFP immunoprecipitate (MyoB complex): none was detected associated with the MyoB complex
effect of calcium on near- or far-UV CD spectrum ([1]; 1 mM calcium ions): no effect on either the near- or far-UV spectrum
turn content [1, 3]: 20%
α helix content [1, 3]: 32%
β sheet content [1, 3]: 17%
presence in anti-MTIP immunoprecipitate (MTIP): present with MTIP in the same complex

peptide 770–787: biotinylated PfMyoA neck peptide Gln770–Ala787 with SGSG linker, C-terminal amide (Biotin-SGSGQREKLVEWENCVSVIEAA-NH2; SMILES CC[C@H](C)[C@H](NC(=O)[C@@H](NC(=O)[C@H](CO)NC(=O)[C@@H](NC(=O)[C@H](CS)NC(=O)[C@H](CC(N)=O)NC(=O)[C@H](CCC(=O)O)NC(=O)[C@H](Cc1c[nH]c2ccccc12)NC(=O)[C@H](CCC(=O)O)NC(=O)[C@@H](NC(=O)[C@H](CC(C)C)NC(=O)[C@H](CCCCN)NC(=O)[C@H](CCC(=O)O)NC(=O)[C@H](CCCNC(=N)N)NC(=O)[C@H](CCC(N)=O)NC(=O)CNC(=O)[C@H](CO)NC(=O)CNC(=O)[C@H](CO)NC(=O)CCCC[C@@H]1SC[C@@H]2NC(=O)N[C@@H]21)C(C)C)C(C)C)C(C)C)C(=O)N[C@@H](CCC(=O)O)C(=O)N[C@@H](C)C(=O)N[C@@H](C)C(N)=O; UniProt Q8IDR3 770-787, looked up, fragment)
binding to PfELC (in words) (PfELC): no observable binding
binding to PfELC (in words) (PfELC; listed as MyoA 770–787): no binding

B1: Myosin A (protein)
chain: MAVTNEEIKTASKIVRRVSNVEAFDKSGSVFKGYQIWTDISPTIENDPNIMFVKCVVQQGSKKEKLTVVQIDPPGTGTPYDIDPTHAWNCNSQVDPMSFGDIGLLNHTNIPCVLDFLKHRYLKNQIYTTAVPLIVAINPYKDLGNTTNEWIRRYRDTADHTKLPPHVFTCAREALSNLHGVNKSQTIIVSGESGAGKTEATKQIMRYFASSKSGNMDLRIQTAIMAANPVLEAFGNAKTIRNNNSSRFGRFMQLVISHEGGIRYGSVVAFLLEKSRIITQDDNERSYHIFYQFLKGANSTMKSKFGLKGVTEYKLLNPNSTEVSGVDDVKDFEEVIESLKNMELSESDIEVIFSIVAGILTLGNVRLIEKQEAGLSDAAAIMDEDMGVFNKACELMYLDPELIKREILIKVTVAGGTKIEGRWNKNDAEVLKSSLCKAMYEKLFLWIIRHLNSRIEPEGGFKTFMGMLDIFGFEVFKNNSLEQLFINITNEMLQKNFVDIVFERESKLYKDEGISTAELKYTSNKEVINVLCEKGKSVLSYLEDQCLAPGGTDEKFVSSCATNLKENNKFTPAKVASNKNFIIQHTIGPIQYCAESFLLKNKDVLRGDLVEVIKDSPNPIVQQLFEGQVIEKGKIAKGSLIGSQFLNQLTSLMNLINSTEPHFIRCIKPNENKKPLEWCEPKILIQLHALSILEALVLRQLGYSYRRTFEEFLYQYKFVDIAAAEDSSVENQNKCVNILKLSGLSESMYKIGKSMVFLKQEGAKILTKIQREKLVEWENCVSVIEAAILKHKYKQKVNKNIPSLLRVQAHIRKKMVAQ
modifications: left off: GST, N-terminal, kept
notes: GST-tagged PfMyoA expressed in wheat germ cell-free system
rate constant of event lifetimes (single-exponential least-square fit) (actin; 0.3 μM Mg·ATP): 6.9 s⁻¹
rate constant of event lifetimes (single-exponential least-square fit) (actin; 8 μM Mg·ATP): 53 s⁻¹
second-order rate constant for Mg·ATP binding and dissociating the acto-MyoA rigor complex (actin; from event lifetimes at 0.3 and 8 μM ATP): ~1.5e+07 M⁻¹ s⁻¹
working stroke (power stroke) (actin; shift in mean position of event distribution, 244 acto-MyoA binding events, 2 μM ATP): 3 nm

B2: Biotinylated PfMyoA neck peptide 801–818 (peptide)
peptide: Biotin-SGSGIPSLLRVQAHIRKKMVAQ-OH
SMILES: CC[C@H](C)[C@H](NC(=O)[C@H](Cc1c[nH]cn1)NC(=O)[C@H](C)NC(=O)[C@H](CCC(N)=O)NC(=O)[C@@H](NC(=O)[C@H](CCCNC(=N)N)NC(=O)[C@H](CC(C)C)NC(=O)[C@H](CC(C)C)NC(=O)[C@H](CO)NC(=O)[C@@H]1CCCN1C(=O)[C@@H](NC(=O)CNC(=O)[C@H](CO)NC(=O)CNC(=O)[C@H](CO)NC(=O)CCCC[C@@H]1SC[C@@H]2NC(=O)N[C@@H]21)[C@@H](C)CC)C(C)C)C(=O)N[C@@H](CCCNC(=N)N)C(=O)N[C@@H](CCCCN)C(=O)N[C@@H](CCCCN)C(=O)N[C@@H](CCSC)C(=O)N[C@H](C(=O)N[C@@H](C)C(=O)N[C@@H](CCC(N)=O)C(=O)O)C(C)C
notes: source: synthetic peptide (Mimotopes)
Kd [2]: 320 nM

B3: Biotinylated PfMyoA neck peptide 786–803 (peptide)
peptide: Biotin-SGSGAAILKHKYKQKVNKNIPS-NH2
SMILES: CC[C@H](C)[C@H](NC(=O)[C@H](C)NC(=O)[C@H](C)NC(=O)CNC(=O)[C@H](CO)NC(=O)CNC(=O)[C@H](CO)NC(=O)CCCC[C@@H]1SC[C@@H]2NC(=O)N[C@@H]21)C(=O)N[C@@H](CC(C)C)C(=O)N[C@@H](CCCCN)C(=O)N[C@@H](Cc1c[nH]cn1)C(=O)N[C@@H](CCCCN)C(=O)N[C@@H](Cc1ccc(O)cc1)C(=O)N[C@@H](CCCCN)C(=O)N[C@@H](CCC(N)=O)C(=O)N[C@@H](CCCCN)C(=O)N[C@H](C(=O)N[C@@H](CC(N)=O)C(=O)N[C@@H](CCCCN)C(=O)N[C@@H](CC(N)=O)C(=O)N[C@H](C(=O)N1CCC[C@H]1C(=O)N[C@@H](CO)C(N)=O)[C@@H](C)CC)C(C)C
notes: as for B2
Kd [2]: 480 nM
